One may read the EC50 (read off the curve) as the concentration giving half of the maximal effect.

These results are taken from patent US20250179195A1 (LES LABORATOIRES SERVIER, published 2025).

B1: anti-FLT3 antibody 17497 (antibody, human IgG1, kappa, L234A L235A, V domains shown)
VH: QVQLQESGPGLVKPSGTLSLTCAVSGGSISSTNWWSWVRQPPGKGLEWIGEISHRGSTNYNPSLKSRVTISVDKSKNQFSLKLSSVTAADTAVYYCARDPEMTLYYYYGMDVWGQGTTVTVSS
VL: DIQMTQSPSSLSASVGDRVTITCRASRGIRNDLGWYQQKPGKAPKRLIYAASSLQSGVPSRFSGSGSGTEFTLTISSLQPEDFATYYCLQHNSYPLTFGGGTKVEIKR
notes: Human IgG1-LALA / kappa
B2: anti-FLT3 antibody 17679 (antibody, human IgG1, kappa, L234A L235A, V domains shown)
VH: QVQLQESGPGLVKPSQTLSLTCTVSGGSISSGGYYWSWIRQHPGKGLEWIGYIYYSGRTNYNPSLKSRVTISEDTSKNQFSLKVSSVTAADTAVYYCARDQDGSGWYFDYWGQGALVTVSS
VL: EIVLTQSPATLSLSPGERATLSCRASQSVSSYLAWYQQKPGQAPRLLIYDASNRATGIPARFSGSGSGTDFTLTIRSLEPEDFAVYYCQQRSNWWTFGQGTKVEIKR
notes: Human IgG1-LALA / kappa
B3: anti-FLT3 antibody 17526 (antibody, human IgG1, kappa, L234A L235A, V domains shown)
VH: QVTLKESGPVLVKPTETLTLTCTISGFSLGNARMGVSWIRQPPGKALEWLAHIFSNDEKSYSTSLKSRLTISKDTSKSQVVLTMTNMDPVDTATYYCARIVGYVDWLLPFDYWGQGTLVTVSS
VL: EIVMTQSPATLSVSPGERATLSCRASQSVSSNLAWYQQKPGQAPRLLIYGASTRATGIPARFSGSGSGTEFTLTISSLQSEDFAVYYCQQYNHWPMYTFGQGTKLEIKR
notes: Human IgG1-LALA / kappa
B4: anti-FLT3 antibody 17667 (antibody, human IgG1, kappa, L234A L235A, V domains shown)
VH: B3 VH with I24V, G30S, K59R, T63P, D74G
VL: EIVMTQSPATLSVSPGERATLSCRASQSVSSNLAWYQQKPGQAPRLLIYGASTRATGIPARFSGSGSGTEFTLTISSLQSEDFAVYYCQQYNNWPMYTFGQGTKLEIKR
notes: Human IgG1-LALA / kappa
B5: anti-FLT3 antibody 17566 (antibody, human IgG1, kappa, L234A L235A, V domains shown)
VH: QVTLKESGPVLVKPTETLTLTCTVSGFSFNNARMGVNWIRQPPGKALEWLAHIFSNDEKSYSTSLKSRLTISKDISKSQVVLTMTNMDPVDTATYYCARIVGYGSGWRLLGDYWGQGTLVTVSS
VL: B1 VL with D1A, R27Q, R30T, R46L, E70D, H91D, N92Y, S93N, L96W, G100Q
notes: Human IgG1-LALA (L234A/L235A) / kappa, germline-corrected variable domains
B6: anti-FLT3 antibody 17543 (antibody, human IgG1, kappa, L234A L235A, V domains shown)
VH: QVTLKESGPVLVKPTETLTLTCTVSGFSLINARMGVTWIRQPPGKALEWLAHIFSNDEKSYSTSLKSRLTISKDTSKSQVVLTMTNMDPVDTATYYCARIPGYSRGWDYYYYGMDVWGQGTMVTVSS
VL: B1 VL with R27Q, S53T, L96W, G100Q
notes: Human IgG1-LALA / kappa

Changes are numbered by the printed parent chain. In names and notes the source's numbering stands.

The first assay deals with T1, mouse FLT3 expressed on CHO-S cells (mouse, UniProt Q00342 28-1000).
T1 construct: whole, on cells
T1 sequence (Q00342 28-1000): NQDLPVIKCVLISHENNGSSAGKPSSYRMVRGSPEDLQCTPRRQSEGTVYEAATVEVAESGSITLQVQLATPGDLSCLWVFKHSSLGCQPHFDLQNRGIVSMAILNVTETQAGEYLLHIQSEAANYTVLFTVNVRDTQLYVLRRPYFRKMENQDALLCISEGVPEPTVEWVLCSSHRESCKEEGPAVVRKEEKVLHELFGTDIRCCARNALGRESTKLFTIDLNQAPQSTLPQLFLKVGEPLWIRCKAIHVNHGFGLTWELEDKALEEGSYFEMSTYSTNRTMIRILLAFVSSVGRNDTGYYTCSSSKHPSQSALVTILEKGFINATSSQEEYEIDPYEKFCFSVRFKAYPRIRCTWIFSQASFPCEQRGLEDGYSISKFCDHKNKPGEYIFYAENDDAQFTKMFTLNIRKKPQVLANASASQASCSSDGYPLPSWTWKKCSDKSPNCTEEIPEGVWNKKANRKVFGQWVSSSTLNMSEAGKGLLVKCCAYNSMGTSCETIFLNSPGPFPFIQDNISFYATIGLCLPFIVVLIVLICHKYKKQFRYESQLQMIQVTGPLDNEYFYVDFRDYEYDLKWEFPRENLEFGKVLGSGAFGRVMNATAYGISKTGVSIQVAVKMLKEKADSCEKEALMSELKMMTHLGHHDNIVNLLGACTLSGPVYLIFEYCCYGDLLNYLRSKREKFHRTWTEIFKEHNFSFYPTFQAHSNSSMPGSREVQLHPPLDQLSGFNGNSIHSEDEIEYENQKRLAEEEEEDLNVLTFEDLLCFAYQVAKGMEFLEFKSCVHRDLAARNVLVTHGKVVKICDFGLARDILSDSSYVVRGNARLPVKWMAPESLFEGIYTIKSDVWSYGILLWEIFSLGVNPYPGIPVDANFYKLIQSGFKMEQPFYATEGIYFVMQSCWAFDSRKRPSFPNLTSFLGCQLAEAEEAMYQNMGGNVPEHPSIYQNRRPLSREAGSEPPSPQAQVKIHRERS
Description: flow cytometry (iQue Screener PLUS) on CHO-S cells transiently expressing mouse FLT3; AF647 anti-human IgG (H+L) secondary; GeoMean RL1-H; 12-point titration. On the technique in general: A flow cytometer gives signals particle by particle.
Description: (§1) The anti-FLT3 antibodies were incubated with the hamster CHO-S cell line transiently expressing human, cynomolgus or mouse FLT3 for 30 minutes at 4° C. The cells were washed twice and subsequently incubated for an additional 20 minutes with AF647-conjugated secondary anti-human IgG (H+L) antibody. After the washing step, antibody binding was detected using the high-throughput flow cytometer iQue Screener PLUS (Sartorius) measuring the GeoMean of AF647 signal in each well. Every concentration was assayed in triplicate and a 12-point titration curve was generated for each antibody.
As to B1, the “EC50 (read off the curve)” value is about 0.01 µg/mL.

The next assay deals with T1, mouse FLT3 expressed on CHO-S cells. Description: flow cytometry (iQue Screener PLUS) on CHO-S cells transiently expressing mouse FLT3; AF647 anti-human IgG (H+L) secondary; GeoMean RL1-H.
Description: as §1
As to B2, the binding result is on record as “no binding”.
For B3, the binding result is recorded as “no binding”.
Turning to B4, the binding result is recorded as “no binding”.
Same read-out and setting: under B5 stands “no binding”; under B6, “no binding”.

In the next assay the target is T2, human FLT3 expressed on cells (human, UniProt P36888 27-993).
T2 construct: endogenous on EOL-1 cells and primary CD34+ stem cells in the functional rows; also called CD135
Description: flow cytometry (iQue Screener PLUS) on CHO-S cells transiently expressing human FLT3; AF647 anti-human IgG (H+L) secondary; GeoMean RL1-H; 12-point titration.
Description: as §1
In the case of B2, the binding result is given as “binds”.
B3: the binding result was “binds”.
Still for that read-out and setting: as for B4, the entry is “binds”; as for B5, “binds”.
In the case of B1, the binding result is “binds”.
In the case of B6, the “EC50 (read off the curve)” value is about 0.03 µg/mL.

In a further assay the target is T3, recombinant human FLT3 ECD his-tagged fusion receptor (Sino Biological) (human, UniProt P36888 27-543).
T3 construct: Bought protein; also called FLT3-his; His-tagged FLT3; not shown: His tag
Kind of assay: bio-layer interferometry (Octet QK384); FLT3-his immobilized on anti-penta-HIS (HIS1K) biosensor; 500 nM antibody, 600 s association. In general terms: Biolayer interferometry detects binding as a change in optical thickness at a sensor tip.
Turning to B2, the binding result is reported as “binds”.
In the case of B3, the binding result was “binds”.
Turning to B4, the binding result is recorded as “binds”.
With B5, the binding result is listed as “binds”.
For the molecule B1, the binding result is “binds”.

In another assay the target is T4, cynomolgus FLT3 expressed on CHO-S cells (cynomolgus, UniProt A0A2K5VQ48 27-993).
T4 construct: whole, on cells
Description: flow cytometry (iQue Screener PLUS) on CHO-S cells transiently expressing cynomolgus FLT3; AF647 anti-human IgG (H+L) secondary; GeoMean RL1-H; 12-point titration.
Description: as §1
As for B2, the “EC50 (read off the curve)” value is about 0.04 µg/mL.
For the molecule B3, the “EC50 (read off the curve)” value was about 0.02 µg/mL.
For the molecule B4, the “EC50 (read off the curve)” value was about 0.02 µg/mL.
Consider B5, for which the “EC50 (read off the curve)” value is about 0.03 µg/mL.
For B1, the “EC50 (read off the curve)” value was about 0.01 µg/mL.
For B6, the “EC50 (read off the curve)” value was about 0.04 µg/mL.
